Values quoted from earlier work in paper PMC6873222.

Tests used:
[1] = biological target: CD55 ECD (Homo sapiens) (UniProt P08174)
[2] = biological target: SIRPG ECD (Homo sapiens) (UniProt Q9P1W8)
UniProt Q9P1W8, sequence (Q9P1W8 29-360): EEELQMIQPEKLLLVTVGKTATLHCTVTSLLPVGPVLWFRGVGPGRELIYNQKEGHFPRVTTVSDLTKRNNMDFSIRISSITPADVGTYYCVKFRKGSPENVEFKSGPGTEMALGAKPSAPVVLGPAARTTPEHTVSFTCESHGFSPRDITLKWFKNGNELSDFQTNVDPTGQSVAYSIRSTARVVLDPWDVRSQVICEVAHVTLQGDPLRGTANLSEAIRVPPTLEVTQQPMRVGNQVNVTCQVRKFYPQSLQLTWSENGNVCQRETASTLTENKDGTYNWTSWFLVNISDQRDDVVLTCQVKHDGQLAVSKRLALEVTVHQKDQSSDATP

UniProt P08174, sequence (P08174 35-353): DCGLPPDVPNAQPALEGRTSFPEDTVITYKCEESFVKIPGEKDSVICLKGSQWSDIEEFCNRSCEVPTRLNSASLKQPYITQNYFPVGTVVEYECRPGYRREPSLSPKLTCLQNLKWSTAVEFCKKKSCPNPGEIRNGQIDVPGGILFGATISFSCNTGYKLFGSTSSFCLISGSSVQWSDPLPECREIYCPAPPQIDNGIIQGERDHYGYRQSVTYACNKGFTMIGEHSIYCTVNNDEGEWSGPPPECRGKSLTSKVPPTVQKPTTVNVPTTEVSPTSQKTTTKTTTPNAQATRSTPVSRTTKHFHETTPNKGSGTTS

Kd [1] [µM] | Kd [2] [µM] | Substance
> 80 | – | CD97 ECD (from UniProt P48960)
– | 23 | CD47 ECD (from UniProt Q08722)
